# Article PMC2734569, “Functional mapping of the fission yeast DNA polymerase δ B-subunit Cdc1 by site-directed and random pentapeptide insertion mutagenesis” (BMC Molecular Biology, 2009)
# T1: Cdc1-E5 (Schizosaccharomyces pombe, UniProt P87324 1-462, Val-MetGlyTyrProVal-Met)
# T1 construct: Cdc1, S. pombe, with a pentapeptide inserted after residue 86; source: yeast two-hybrid fusion, in S. cerevisiae CTY10-5d
# T1 sequence (looked up): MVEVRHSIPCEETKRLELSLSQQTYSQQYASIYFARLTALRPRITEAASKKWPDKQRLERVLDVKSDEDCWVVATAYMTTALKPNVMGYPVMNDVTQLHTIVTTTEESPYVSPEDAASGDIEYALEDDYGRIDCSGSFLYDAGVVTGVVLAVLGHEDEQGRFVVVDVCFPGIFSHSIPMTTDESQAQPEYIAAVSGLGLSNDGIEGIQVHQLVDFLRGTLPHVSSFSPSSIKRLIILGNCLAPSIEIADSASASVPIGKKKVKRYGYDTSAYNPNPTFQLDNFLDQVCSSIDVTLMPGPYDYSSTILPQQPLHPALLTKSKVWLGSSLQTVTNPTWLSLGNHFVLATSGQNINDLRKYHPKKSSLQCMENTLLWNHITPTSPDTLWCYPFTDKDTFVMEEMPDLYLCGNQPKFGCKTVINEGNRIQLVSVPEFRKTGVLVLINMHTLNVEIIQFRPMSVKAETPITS
# T2: Cdc1-J4 (Schizosaccharomyces pombe, UniProt P87324 1-462, Ile-GlyValProArgIle-Asp)
# T2 construct: Cdc1, S. pombe, with a pentapeptide inserted after residue 127; also called J5; J13; source: yeast two-hybrid fusion, in S. cerevisiae CTY10-5d
# T2 sequence (looked up): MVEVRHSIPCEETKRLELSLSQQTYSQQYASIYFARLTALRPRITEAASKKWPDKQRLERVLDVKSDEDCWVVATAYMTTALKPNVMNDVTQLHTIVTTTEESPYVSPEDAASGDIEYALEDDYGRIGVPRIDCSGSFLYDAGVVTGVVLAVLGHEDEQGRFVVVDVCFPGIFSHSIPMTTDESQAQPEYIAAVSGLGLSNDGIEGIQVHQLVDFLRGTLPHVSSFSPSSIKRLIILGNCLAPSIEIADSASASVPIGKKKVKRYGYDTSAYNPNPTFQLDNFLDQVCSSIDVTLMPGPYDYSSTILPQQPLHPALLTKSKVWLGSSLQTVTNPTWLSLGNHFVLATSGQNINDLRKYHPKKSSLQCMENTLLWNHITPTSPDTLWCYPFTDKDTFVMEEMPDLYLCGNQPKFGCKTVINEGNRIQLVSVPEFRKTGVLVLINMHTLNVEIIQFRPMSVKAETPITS
# T3: Cdc1-J9 (Schizosaccharomyces pombe, UniProt P87324 1-462, Met-ArgGlyThrProMet-Thr)
# T3 construct: Cdc1, S. pombe, with a pentapeptide inserted after residue 174; source: yeast two-hybrid fusion, in S. cerevisiae CTY10-5d
# T3 sequence (looked up): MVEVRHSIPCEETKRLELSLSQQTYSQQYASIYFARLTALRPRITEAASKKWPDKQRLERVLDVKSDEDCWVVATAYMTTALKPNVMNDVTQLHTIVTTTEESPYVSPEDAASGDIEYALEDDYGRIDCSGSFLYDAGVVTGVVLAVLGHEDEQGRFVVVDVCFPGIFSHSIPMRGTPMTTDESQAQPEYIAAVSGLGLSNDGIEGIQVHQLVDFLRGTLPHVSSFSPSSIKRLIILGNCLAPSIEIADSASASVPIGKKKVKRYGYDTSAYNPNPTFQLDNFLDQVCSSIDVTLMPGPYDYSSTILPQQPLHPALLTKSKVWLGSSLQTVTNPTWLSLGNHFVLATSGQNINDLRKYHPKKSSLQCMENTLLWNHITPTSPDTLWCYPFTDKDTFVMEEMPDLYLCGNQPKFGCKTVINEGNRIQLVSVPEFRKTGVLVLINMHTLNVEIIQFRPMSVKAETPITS
# T4: Cdc1-A9 (Schizosaccharomyces pombe, UniProt P87324 1-462, Pro292Ala | Gly293Ala)
# T4 construct: Cdc1, S. pombe, double point mutant (A1 and A2 combined); source: yeast two-hybrid fusion, in S. cerevisiae CTY10-5d
# T4 sequence (looked up): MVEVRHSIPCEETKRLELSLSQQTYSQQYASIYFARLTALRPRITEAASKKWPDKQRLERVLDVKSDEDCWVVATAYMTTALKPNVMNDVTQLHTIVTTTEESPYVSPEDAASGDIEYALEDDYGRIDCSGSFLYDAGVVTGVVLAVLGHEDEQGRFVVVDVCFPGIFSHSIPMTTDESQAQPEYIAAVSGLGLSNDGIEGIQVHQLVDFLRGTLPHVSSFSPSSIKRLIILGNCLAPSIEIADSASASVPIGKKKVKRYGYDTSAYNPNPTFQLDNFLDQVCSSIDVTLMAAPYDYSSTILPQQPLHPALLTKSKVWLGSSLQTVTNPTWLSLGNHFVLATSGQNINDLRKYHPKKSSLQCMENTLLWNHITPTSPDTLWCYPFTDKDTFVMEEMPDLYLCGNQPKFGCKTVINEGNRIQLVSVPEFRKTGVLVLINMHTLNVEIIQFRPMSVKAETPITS
# B1: Cdc27 (fission yeast DNA polymerase delta C-subunit) (natural protein, Schizosaccharomyces pombe, UniProt P30261 1-372, looked up)
# chain: MEEWRNFLDIKVINESSLVTVDNLSLQLDISSEKAQEYLNMFYQGNDFLYPIYLIHGQPIDDEINLEIDEESQPISNFPVLQYILCDKSSLQEKQSRLKSGYKTVIFALSSAPLSDFDELLPAVYEIREKDVLYKKEDADKYGFIFNENSVPRVLKKAPSTHSPQLSVPSKTSTIDKTDTRSTEKTKGKDIFSNARNQKGNSSRKNKKAPLENHKEKEPLLPKEEKLSEQAKRERDDLKNIMQLEDESVSTTSVHDSEDDNLDSNNFQLEIGTEAKSAAPDEPQEIIKSVSGGKRRGKRKVKKYATTKDEEGFLVTKEEEVWESFSEDENISTGTSNVVRNKPTTVNIATKKKNTAQSKPQQKSIMSFFGKK
# notes: DNA polymerase delta C-subunit Cdc27, S. pombe; prey plasmid pGAD2F-Cdc27; also called pGAD2F-Cdc27; source: yeast two-hybrid fusion, in S. cerevisiae CTY10-5d
# Legend:
# Assay in all cases: two-hybrid; LexA-Cdc1 bait (pBTM116 or pBTM116BN) with Gal4 activation domain-Cdc27 prey (pGAD2F-Cdc27) in S. cerevisiae CTY10-5d; ONPG liquid culture beta-galactosidase assay, mean of triplicates, as percent of wild-type Cdc1
# Conditions in all cases: partners not purified
# Cdc1-E5 = molecular target: T1, Cdc1-E5
# Cdc1-J4 = molecular target: T2, Cdc1-J4
# Cdc1-J9 = molecular target: T3, Cdc1-J9
# Cdc1-A9 = molecular target: T4, Cdc1-A9
binder,measurement,setting,value
B1,"two-hybrid beta-galactosidase activity, % of wild-type Cdc1",Cdc1-E5,88%
same,"two-hybrid beta-galactosidase activity, % of wild-type Cdc1",Cdc1-J4,< 1%
same,"two-hybrid beta-galactosidase activity, % of wild-type Cdc1",Cdc1-J9,102%
same,"two-hybrid beta-galactosidase activity, % of wild-type Cdc1",Cdc1-A9,58%
